Results: publication PMC5797019 (2017)

Molecular target: vp22-RelA302-316 peptide (herpes virus | , UniProt Q04206 302-316)
Assay: SPR

B1: His-SETD6 (enzyme)
chain: MATQAKRPRVAGPVDGGDLDPVACFLSWCRRVGLELSPKVSERAGGRRTRGGARAALTSPPAQVAVSRQGTVAGYGMVARESVQAGELLFVVPRAALLSQHTCSIGGLLERERVALQSQSGWVPLLLALLHELQAPASRWRPYFALWPELGRLEHPMFWPEEERRCLLQGTGVPEAVEKDLANIRSEYQSIVLPFMEAHPDLFSLRVRSLELYHQLVALVMAYSFQEPLEEEEDEKEPNSPVMVPAADILNHLANHNANLEYSANCLRMVATQPIPKGHEIFNTYGQMANWQLIHMYGFVEPYPDNTDDTADIQMVTVREAALQGTKTEAERHLVYERWDFLCKLEMVGEEGAFVIGREEVLTEEELTTTLKVLCMPAEEFRELKDQDGGGDDKREEGSLTITNIPKLKASWRQLLQNSVLLTLQTYATDLKTDQGLLSNKEVYAKLSWREQQALQVRYGQKMILHQLLELTS
Question: For B1, which Kd is on record?
Answer: 1.1 µM
